B1: FBXO3 (parent)
chain: AGGFQQRQGLKYCLPLTFCIHTGL

Variants of: B1
Test: protein stability index of a GFP-peptide fusion (GPS, HEK-293T) (PSI 1-6); higher = more stable
Details: c terminus: a fixed tail appended
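Note: lentivirally expressed fusions sorted by FACS into six bins by GFP to DsRed ratio, PSI derived from sequencing read proportions per bin multiplied by bin number.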

**Q.** Which protein stability index does the source give for AGGFQQRQGLKYCLPLTFCMHTGL here?
**A.** Its protein stability index is 2.73.

**Q.** For AGGFQQRQGLKYCLPLTFCWHTGL, which protein stability index is on record?
**A.** Its protein stability index is 1.25.

**Q.** Which protein stability index does the source give for AGGFQQRQGLKYCLPLTFCNHTGL here?
**A.** The protein stability index was 2.33.

**Q.** For AGGFQQRQGLKYCLPLTFCFHTGL, which protein stability index is on record?
**A.** Its protein stability index is 2.34.

**Q.** With AGGFQQRQGLKYCLPLTFCKHTGL as the variant, how does the protein stability index read?
**A.** The protein stability index was 1.6.

**Q.** With AGGFQQRQGLKYCLPLTFCDHTGL as the variant, how does the protein stability index read?
**A.** Its protein stability index is 2.93.

**Q.** Which protein stability index does the source give for AGGFQQRQGLKYCLPLTFCEHTGL here?
**A.** The protein stability index was 2.95.

**Q.** For AGGFQQRQFLKYCLPLTFCIHTGL, which protein stability index is on record?
**A.** The protein stability index was 2.58.

**Q.** With AGGFQQRQYLKYCLPLTFCIHTGL as the variant, how does the protein stability index read?
**A.** The protein stability index was 3.4.

**Q.** With AGGFQQRQKLKYCLPLTFCIHTGL as the variant, how does the protein stability index read?
**A.** Its protein stability index is 2.74.

**Q.** For AGGFQQRQLLKYCLPLTFCIHTGL, which protein stability index is on record?
**A.** The protein stability index was 3.97.

**Q.** For AGGFQQRQRLKYCLPLTFCIHTGL, which protein stability index is on record?
**A.** Its protein stability index is 1.48.

**Q.** Which protein stability index does the source give for AGGFQQRQDLKYCLPLTFCIHTGL here?
**A.** Its protein stability index is 2.68.

**Q.** With AGGFQQRQMLKYCLPLTFCIHTGL as the variant, how does the protein stability index read?
**A.** Its protein stability index is 3.48.

**Q.** For AGGFQQRQSLKYCLPLTFCIHTGL, which protein stability index is on record?
**A.** Its protein stability index is 3.54.

**Q.** For AGGFQQRQILKYCLPLTFCIHTGL, which protein stability index is on record?
**A.** The protein stability index was 2.28.

**Q.** Which protein stability index does the source give for AGGFQQRQELKYCLPLTFCIHTGL here?
**A.** The protein stability index was 1.87.

**Q.** Which protein stability index does the source give for AGMFQQRQGLKYCLPLTFCIHTGL here?
**A.** The protein stability index was 2.47.

**Q.** For AGEFQQRQGLKYCLPLTFCIHTGL, which protein stability index is on record?
**A.** The protein stability index was 1.99.

**Q.** Which protein stability index does the source give for AGVFQQRQGLKYCLPLTFCIHTGL here?
**A.** The protein stability index was 2.54.

**Q.** With AGDFQQRQGLKYCLPLTFCIHTGL as the variant, how does the protein stability index read?
**A.** Its protein stability index is 3.1.

**Q.** Which protein stability index does the source give for AGCFQQRQGLKYCLPLTFCIHTGL here?
**A.** Its protein stability index is 2.66.

**Q.** With AGTFQQRQGLKYCLPLTFCIHTGL as the variant, how does the protein stability index read?
**A.** Its protein stability index is 3.31.

**Q.** For AGRFQQRQGLKYCLPLTFCIHTGL, which protein stability index is on record?
**A.** Its protein stability index is 3.24.

**Q.** With AGGHQQRQGLKYCLPLTFCIHTGL as the variant, how does the protein stability index read?
**A.** Its protein stability index is 2.54.

**Q.** For AGGYQQRQGLKYCLPLTFCIHTGL, which protein stability index is on record?
**A.** The protein stability index was 2.42.

**Q.** For AGGQQQRQGLKYCLPLTFCIHTGL, which protein stability index is on record?
**A.** The protein stability index was 2.37.

**Q.** For AGGEQQRQGLKYCLPLTFCIHTGL, which protein stability index is on record?
**A.** The protein stability index was 3.03.

**Q.** With AGGIQQRQGLKYCLPLTFCIHTGL as the variant, how does the protein stability index read?
**A.** The protein stability index was 3.07.

**Q.** Which protein stability index does the source give for AGGAQQRQGLKYCLPLTFCIHTGL here?
**A.** Its protein stability index is 3.49.

**Q.** Which protein stability index does the source give for AGGFQQRQGLKYCLPLTFCIHCGL here?
**A.** The protein stability index was 2.09.

**Q.** With AGGFQQRQGLKYCLPLTFCIHYGL as the variant, how does the protein stability index read?
**A.** Its protein stability index is 3.75.

**Q.** Which protein stability index does the source give for AGGFQQRQGLKYCLPLTFCIHKGL here?
**A.** The protein stability index was 2.49.

**Q.** Which protein stability index does the source give for AGGFQQRQGLKYCLPLTFCIHSGL here?
**A.** The protein stability index was 3.29.

**Q.** For AGGFQQRQGLKYCLPLTFCIHQGL, which protein stability index is on record?
**A.** Its protein stability index is 2.23.

**Q.** For AGGFQQRQGLKYCLPLTFCIHVGL, which protein stability index is on record?
**A.** Its protein stability index is 3.1.

**Q.** For AGGFQQRQGLKYCLPLTFCIHEGL, which protein stability index is on record?
**A.** Its protein stability index is 2.24.

**Q.** For AGGFMQRQGLKYCLPLTFCIHTGL, which protein stability index is on record?
**A.** The protein stability index was 2.17.

**Q.** With AGGFFQRQGLKYCLPLTFCIHTGL as the variant, how does the protein stability index read?
**A.** Its protein stability index is 1.98.

**Q.** With AGGFCQRQGLKYCLPLTFCIHTGL as the variant, how does the protein stability index read?
**A.** Its protein stability index is 3.02.

**Q.** For AGGFDQRQGLKYCLPLTFCIHTGL, which protein stability index is on record?
**A.** The protein stability index was 2.34.

**Q.** Which protein stability index does the source give for AGGFTQRQGLKYCLPLTFCIHTGL here?
**A.** Its protein stability index is 2.

**Q.** For AGGFGQRQGLKYCLPLTFCIHTGL, which protein stability index is on record?
**A.** Its protein stability index is 3.92.

**Q.** With AGGFYQRQGLKYCLPLTFCIHTGL as the variant, how does the protein stability index read?
**A.** Its protein stability index is 3.66.

**Q.** Which protein stability index does the source give for AGGFIQRQGLKYCLPLTFCIHTGL here?
**A.** Its protein stability index is 2.17.

**Q.** Which protein stability index does the source give for AGGFAQRQGLKYCLPLTFCIHTGL here?
**A.** The protein stability index was 3.05.

**Q.** Which protein stability index does the source give for AGGFPQRQGLKYCLPLTFCIHTGL here?
**A.** The protein stability index was 1.71.

**Q.** Which protein stability index does the source give for AGGFSQRQGLKYCLPLTFCIHTGL here?
**A.** Its protein stability index is 3.59.

**Q.** For AGGFVQRQGLKYCLPLTFCIHTGL, which protein stability index is on record?
**A.** The protein stability index was 2.33.

**Q.** With AGGFQQRQGLKYCLPLGFCIHTGL as the variant, how does the protein stability index read?
**A.** Its protein stability index is 2.31.

**Q.** For AGGFQQRQGLKYCLPLTFNIHTGL, which protein stability index is on record?
**A.** The protein stability index was 2.04.

**Q.** Which protein stability index does the source give for AGGFQQRQGLKYCLPLTFTIHTGL here?
**A.** Its protein stability index is 3.13.

**Q.** Which protein stability index does the source give for AGGFQQRQGLKYCLPLTFSIHTGL here?
**A.** The protein stability index was 2.64.

**Q.** Which protein stability index does the source give for AGGFQQRQGLKYCLPLTFVIHTGL here?
**A.** The protein stability index was 2.83.

**Q.** Which protein stability index does the source give for AGGFQQRQGLKYCLPLTFYIHTGL here?
**A.** Its protein stability index is 2.67.

**Q.** Which protein stability index does the source give for AGGFQQRQGLKYCLPLTFFIHTGL here?
**A.** The protein stability index was 2.44.

**Q.** With AGGFQQRQGLKYCLPLTFPIHTGL as the variant, how does the protein stability index read?
**A.** The protein stability index was 1.87.

**Q.** For AGGFQQRQGLKYCLPLTFMIHTGL, which protein stability index is on record?
**A.** The protein stability index was 2.71.

**Q.** With AGGFQQRQGLKYCLPLTFAIHTGL as the variant, how does the protein stability index read?
**A.** Its protein stability index is 3.9.

**Q.** For AGGFQQRQGLHYCLPLTFCIHTGL, which protein stability index is on record?
**A.** The protein stability index was 2.35.

**Q.** With AGGFQQRQGLGYCLPLTFCIHTGL as the variant, how does the protein stability index read?
**A.** The protein stability index was 3.61.

**Q.** With AGGFQQRQGLSYCLPLTFCIHTGL as the variant, how does the protein stability index read?
**A.** Its protein stability index is 2.74.

**Q.** With AGGFQQRQGLLYCLPLTFCIHTGL as the variant, how does the protein stability index read?
**A.** Its protein stability index is 2.21.

**Q.** For AGGFQQRQGLTYCLPLTFCIHTGL, which protein stability index is on record?
**A.** The protein stability index was 2.45.

**Q.** For AGGFQQRQGLVYCLPLTFCIHTGL, which protein stability index is on record?
**A.** The protein stability index was 3.35.

**Q.** With AGGFQQRQGLYYCLPLTFCIHTGL as the variant, how does the protein stability index read?
**A.** Its protein stability index is 2.43.

**Q.** With AGGFQQRQGLFYCLPLTFCIHTGL as the variant, how does the protein stability index read?
**A.** Its protein stability index is 3.02.

**Q.** For AGGFQQRQGLIYCLPLTFCIHTGL, which protein stability index is on record?
**A.** The protein stability index was 3.42.

**Q.** Which protein stability index does the source give for AGGFQQRTGLKYCLPLTFCIHTGL here?
**A.** The protein stability index was 3.56.

**Q.** Which protein stability index does the source give for AGGFQQRYGLKYCLPLTFCIHTGL here?
**A.** The protein stability index was 2.17.

**Q.** With AGGFQQRKGLKYCLPLTFCIHTGL as the variant, how does the protein stability index read?
**A.** Its protein stability index is 3.23.

**Q.** With AGGFQQRFGLKYCLPLTFCIHTGL as the variant, how does the protein stability index read?
**A.** Its protein stability index is 2.59.

**Q.** With AGGFQQRWGLKYCLPLTFCIHTGL as the variant, how does the protein stability index read?
**A.** The protein stability index was 2.88.

**Q.** For AGGFQQRVGLKYCLPLTFCIHTGL, which protein stability index is on record?
**A.** Its protein stability index is 2.22.

**Q.** For AGGFQQRCGLKYCLPLTFCIHTGL, which protein stability index is on record?
**A.** The protein stability index was 3.53.

**Q.** With AGGFQQRIGLKYCLPLTFCIHTGL as the variant, how does the protein stability index read?
**A.** Its protein stability index is 2.51.

**Q.** Which protein stability index does the source give for AGGFQQLQGLKYCLPLTFCIHTGL here?
**A.** The protein stability index was 3.44.

**Q.** For AGGFQQHQGLKYCLPLTFCIHTGL, which protein stability index is on record?
**A.** The protein stability index was 2.74.

**Q.** For AGGFQQYQGLKYCLPLTFCIHTGL, which protein stability index is on record?
**A.** The protein stability index was 2.27.

**Q.** For AGGFQQTQGLKYCLPLTFCIHTGL, which protein stability index is on record?
**A.** The protein stability index was 2.6.

**Q.** For AGGFQQCQGLKYCLPLTFCIHTGL, which protein stability index is on record?
**A.** The protein stability index was 2.54.

**Q.** For AGGFQQSQGLKYCLPLTFCIHTGL, which protein stability index is on record?
**A.** Its protein stability index is 2.33.

**Q.** For AGGFQQDQGLKYCLPLTFCIHTGL, which protein stability index is on record?
**A.** Its protein stability index is 2.64.

**Q.** With AGGFQQFQGLKYCLPLTFCIHTGL as the variant, how does the protein stability index read?
**A.** Its protein stability index is 3.23.

**Q.** Which protein stability index does the source give for AGGFQQVQGLKYCLPLTFCIHTGL here?
**A.** Its protein stability index is 3.75.

**Q.** Which protein stability index does the source give for AGGFQQNQGLKYCLPLTFCIHTGL here?
**A.** Its protein stability index is 2.95.

**Q.** For AGGFQQRQGLKVCLPLTFCIHTGL, which protein stability index is on record?
**A.** The protein stability index was 2.36.

**Q.** For AGGFQQRQGLKLCLPLTFCIHTGL, which protein stability index is on record?
**A.** Its protein stability index is 3.06.

**Q.** With AGGFQQRQGLKRCLPLTFCIHTGL as the variant, how does the protein stability index read?
**A.** Its protein stability index is 3.39.

**Q.** With AGGFQQRQGLKNCLPLTFCIHTGL as the variant, how does the protein stability index read?
**A.** The protein stability index was 1.86.

**Q.** For AGGFQQRQGLKKCLPLTFCIHTGL, which protein stability index is on record?
**A.** Its protein stability index is 2.49.

**Q.** For AGGFQQRQGLKDCLPLTFCIHTGL, which protein stability index is on record?
**A.** Its protein stability index is 2.21.

**Q.** Which protein stability index does the source give for AGGFQQRQGLKCCLPLTFCIHTGL here?
**A.** The protein stability index was 2.32.

**Q.** For AGGFQQRQGLKQCLPLTFCIHTGL, which protein stability index is on record?
**A.** The protein stability index was 3.79.

Reference: the supplement of paper PMC10567573
